According to patent publication US20110243948A1 (LEXICON PHARMACEUTICALS, published 2011):
Values joined by “and” are separate entries in the source; they are usually repeats but may differ in a detail not shown here. Equal entries are not always repeated.

T1: hANGPTL3T (full-length HIS-tagged human ANGPTL3) (human, UniProt Q9Y5C1 17-460)
T1 construct: Human ANGPTL3 with a glycine and His6 at the C-terminus, purified from conditioned medium of infected CHO cells; also called full-length ANGPTL3T; human ANGPTL3T
T1 sequence: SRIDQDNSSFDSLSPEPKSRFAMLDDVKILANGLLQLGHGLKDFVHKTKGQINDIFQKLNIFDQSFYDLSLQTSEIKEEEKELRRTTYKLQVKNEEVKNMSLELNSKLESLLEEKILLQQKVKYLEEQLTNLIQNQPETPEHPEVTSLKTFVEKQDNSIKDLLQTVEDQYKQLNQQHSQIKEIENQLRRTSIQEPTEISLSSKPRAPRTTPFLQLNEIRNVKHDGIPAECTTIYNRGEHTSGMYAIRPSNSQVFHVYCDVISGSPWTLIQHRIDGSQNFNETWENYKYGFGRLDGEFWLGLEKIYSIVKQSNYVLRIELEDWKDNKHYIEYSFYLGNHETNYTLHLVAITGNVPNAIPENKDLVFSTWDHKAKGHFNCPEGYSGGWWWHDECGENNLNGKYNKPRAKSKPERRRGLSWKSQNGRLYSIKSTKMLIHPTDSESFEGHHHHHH

T2: SP1 peptide (synthetic peptide with the sequence of the SP1 region of ANGPTL3) (mouse and human (the sequence is the …))
T2 construct: also called ANGPTL3 SP1; hANGPTL3 SP1 peptide
T2 peptide: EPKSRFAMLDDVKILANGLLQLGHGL

T3: mouse ANGPTL3 (mouse, UniProt Q9R182 17-455, limits assumed)
T3 sequence: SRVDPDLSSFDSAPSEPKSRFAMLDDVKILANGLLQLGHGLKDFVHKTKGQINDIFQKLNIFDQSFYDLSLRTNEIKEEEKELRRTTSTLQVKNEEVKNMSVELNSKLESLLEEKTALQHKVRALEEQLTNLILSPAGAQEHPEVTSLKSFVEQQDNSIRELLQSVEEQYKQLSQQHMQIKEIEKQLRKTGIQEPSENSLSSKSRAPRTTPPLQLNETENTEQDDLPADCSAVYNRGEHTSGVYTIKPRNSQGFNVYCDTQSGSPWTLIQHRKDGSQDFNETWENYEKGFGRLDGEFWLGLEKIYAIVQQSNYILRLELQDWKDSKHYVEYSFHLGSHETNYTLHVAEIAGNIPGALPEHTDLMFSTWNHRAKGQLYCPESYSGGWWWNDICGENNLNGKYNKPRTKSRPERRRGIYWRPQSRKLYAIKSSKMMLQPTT

T4: N'-hANGPTL3T (human, UniProt Q9Y5C1 20-243)
T4 construct: also called rN'-hANGPTL3T
T4 sequence: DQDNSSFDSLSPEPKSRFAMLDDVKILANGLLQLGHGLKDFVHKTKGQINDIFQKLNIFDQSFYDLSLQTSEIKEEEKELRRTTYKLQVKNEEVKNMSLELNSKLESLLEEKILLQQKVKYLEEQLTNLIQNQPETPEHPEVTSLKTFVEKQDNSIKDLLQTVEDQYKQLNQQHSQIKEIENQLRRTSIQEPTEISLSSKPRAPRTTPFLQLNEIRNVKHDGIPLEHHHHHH


Columns and labels:
[1] = target: T1, hANGPTL3T (full-length HIS-tagged human …); assay: ELISA (data not shown)
[2] = target: T2, SP1 peptide (synthetic peptide with the …); assay: SPR (BIACORE 3000), antibody captured on anti-mouse IgG Fc chip, SP1 peptide injected, 1:1 model
Protocol: (§1) The BIACORE® 3000 is a real-time biomolecular analysis system for detecting and quantifying protein-protein interactions using surface plasmon resonance technology. The following affinity constants were determined according to the manufacturer's instructions for the BIACORE® 3000 system: equilibrium dissociation constant (KD), association rate constant (kₒₙ), and dissociation rate constant (koff).
The BIACORE CM5 chip surface was coated with an anti-mouse IgG Fc by coupling 90 μg/ml of ImmunoPure Goat Anti-Mouse IgG Fc (Product No.: 31170, Pierce, Rockford, Ill. 61105) to the chip surface using an Amine Coupling Kit (Product No.: BR-1000-50, GE Healthcare, Uppsala Sweden). The antibody was then captured on the anti-mouse IgG Fc BIACORE chip surface by injecting the antibody at a flow rate of 10 μl/min for 30 sec. The association and dissociation phases, which are used to determine kₒₙ and koff constants, were generated by first injecting the SP1 peptide into the BIACORE® 3000 system having an antibody-coated chip surface for 2 minutes at a flow rate of 30 μl/min. […] The injection phase was used to determine the association rate constant, or kₒₙ. Following each injection, the SP1 peptide was dissociated from the antibody by flowing BIACORE HBS-EP buffer (Product No.: BR-1001-88, GE Healthcare, Uppsala Sweden) for 5 minutes over the peptide-antibody complex on the BIACORE CM5 chip surface. This dissociation phase was used to determine the dissociation rate constant, or koff. Prior to the next injection, the BIACORE chip surface was regenerated by injecting 10 mM HCl at a flow rate of 100 μl/min for 30 seconds.

[3] = target: T3, mouse ANGPTL3; assay: cell-based or functional assay
[4] = target: T1, hANGPTL3T (full-length HIS-tagged human …); assay: SPR (BIACORE 3000), antigen amine-coupled to CM5 chip, Fab injected, 1:1 model
Protocol: as §1
(§2) Affinity constants of the 4.7.1, 4.8.3, and 4.9.1 antibodies for N′-hANGPTL3T and hANGPTL3T protein antigens were each determined as follows. The BIACORE CM5 chip surface was coated with a protein antigen by coupling either 10 μg/ml of N′-hANGPTL3T or 20 μg/ml of hANGPTL3T to the chip surface using an Amine Coupling Kit (Product No.: BR-1000-50, GE Healthcare, Uppsala Sweden). The association and dissociation phases, which are used to determine the kₒₙ and koff constants, were generated by first injecting a Fab fragment of the antibody (generated using a Fab Preparation Kit (Product No.: 44885, Pierce, Rockford, Ill. 61105) according to the manufacturer's instructions) into the BIACORE® 3000 system having a coated chip surface for 2 minutes at a flow rate of 30 μl/min. […] The injection phase was used to determine the association rate constant, or kₒₙ. Following each injection, the Fab fragment was dissociated from the protein antigen by flowing BIACORE HBS-EP buffer (Product No.: BR-1001-88, GE Healthcare, Uppsala Sweden) for 5 minutes over the antigen-Fab complex on the BIACORE CM5 chip surface. This dissociation phase was used to determine the dissociation rate constant, or koff. Prior to the next injection, the BIACORE chip surface was regenerated by injecting 10 mM HCl at a flow rate of 100 μl/min for 30 seconds.

[5] = target: T4, N'-hANGPTL3T; assay: as above
Protocol: as §1, §2

[6] = target: T2, SP1 peptide (synthetic peptide with the …); assay: antibody capture ELISA (FIG. 9)

| binding result [1] | Kd [2] [nM] | koff [2] [s⁻¹] | kon [2] [M⁻¹ s⁻¹] | rescue of LPL activity (percentage increase in LPL activity in the presence of both ANGPTL3 and anti-ANGPTL3 antibody relative to ANGPTL3 alone) [3] [%] | Kd [4] | koff [4] | kon [4] | Kd [5] | koff [5] | kon [5] | binding result [6] | Binder |
| --- | --- | --- | --- | --- | --- | --- | --- | --- | --- | --- | --- | --- |
| binds | 1.8 | 0.0015 | 835000 | – | – | – | – | – | – | – | – | antibody 5.35 (antibody, IgG2a, V domains shown, Biotinylated in the alanine-scanning ELISA) VH: QVTLKESGPGILHPSQTLTLTCSFSGFSLNTFGLAVGWIRQPSGKGLEWLGHIWWDDHKYYNGVLKSRLTISKDSSKKQVFLRIANVDTADTARYYCARLETGTGFAYWGQGTLVTVSA VL: DIVLTQSTPSVPVTPGESVSISCRSSKSLLDSNGITYLYWFLQRPGQSPQLLIYRMSKLASGVPDRFSGSGSETAFTLRISRVEAEDVGVYYCMQPLEYPFTFGAGTKLELNG |
| binds | 1.78 | 0.00193 | 1.08e+06 | – | – | – | – | – | – | – | – | antibody 5.50 (antibody, IgG2b, V domains shown, Biotinylated in the alanine-scanning ELISA) VH: EVQLQQSGPELVKPGASVKISCKASGFTFTDYYMNWVKQSHGESLEWIGDINPNNGGTIYNQKFRGKATLTVDKSSSTAYMELRSLTSEDSAVYYCVRLPWYFDVWGTGTTVTVSS VL: DVLMTQTPLSLPVSLGDQASISCRSSQSILHSNGNTYLEWFLQKPGQSPKLLIYKVSNRFSGVPDRFSGSGSGTDFTLKISRVEAEDLGVYYCFQGSHVPYTFGGGTKLEIKR |
| – | – | – | – | > 50 | – | – | – | – | – | – | binds | antibody 4.8.3 (antibody, IgG2a, V domains shown, Biotinylated in the alanine-scanning ELISA) VH: EVQLQQSGPELVKPGASVKMSCKASGYTFISCVMHWVKQKPGQGLEWIGYINPYNDGTKYNEKFKGKATLTSDKSSSTAYMELSSLTSEDSAVYYCAREGDYYGYFDYWGQGTTLTVSS VL: EIQMTQTTSSLSASLGDRVTISCWASQDINNYLNWYQQKPDGTVKLLIYYTSRLHSGVPSRFSGSGSGTDYSLTISNLKQEDIATYFCQQGNTLPPTFGGGTKLEIKR |
| – | 46.1 | 0.00778 | 169000 | > 50 | – | – | – | – | – | – | – | antibody 4.9.1 (antibody, IgG1, V domains shown, Biotinylated in the alanine-scanning ELISA) VH: EVQLQQSGPELVKPGASVKMSCKASGYTFTSYVMHWVKQKPGQGLEWIGYINPYNDGTKYNENFKGKATLTSDKSSSTAYMEFSSLTSEDSAVYYCAREGDYYGYFDYWGQGTTLTVSS VL: DIQMTQTTSSLSASLGDRVTISCRASQDIRNYLNWYQQKPDGTVKLLIYYTSRLHSGVPSRFSGSGSGTDYSLTISNLEQEDIATYFCQQGNTLPPTFGGGTKLEIKR |

Continued, binder first:

| Binder | binding result [1] | Kd [2] [nM] | koff [2] [s⁻¹] | kon [2] [M⁻¹ s⁻¹] | rescue of LPL activity (percentage increase in LPL activity in the presence of both ANGPTL3 and anti-ANGPTL3 antibody relative to ANGPTL3 alone) [3] [%] | Kd [4] | koff [4] | kon [4] | Kd [5] | koff [5] | kon [5] | binding result [6] |
| --- | --- | --- | --- | --- | --- | --- | --- | --- | --- | --- | --- | --- |
| antibody 4.7.1 (antibody, IgG2b, V domains shown, Biotinylated in the alanine-scanning ELISA) VH: EVQLQQSGPELVKPGASVKMSCKASGYTFTSYVMHWVKQKPGQGLEWIGYFNPYNDGTKYNEKFKGKATLTSDKSSSTAYMELSSLTSEDSAVYYCAREGDYYGYFDYWGQGTTLTVSS VL: DIQMTQTTSSLSASLGDRVTISCRASQDISNFLNWYQQKPDGTVKLLIYYTSRLHSGVPSRFSGSGSGTDYSLTISNLEQEDIATYFCQQGNTLPPTFGGGTKLEIKR | – | 26.1 | 0.00546 | 209000 | > 50 | – | – | – | – | – | – | – |
| Fab fragment of antibody 4.7.1 (Fab, V domains shown) VH: EVQLQQSGPELVKPGASVKMSCKASGYTFTSYVMHWVKQKPGQGLEWIGYFNPYNDGTKYNEKFKGKATLTSDKSSSTAYMELSSLTSEDSAVYYCAREGDYYGYFDYWGQGTTLTVSS VL: DIQMTQTTSSLSASLGDRVTISCRASQDISNFLNWYQQKPDGTVKLLIYYTSRLHSGVPSRFSGSGSGTDYSLTISNLEQEDIATYFCQQGNTLPPTFGGGTKLEIKR | – | – | – | – | – | 45.3 nM and 117 nM | 0.00796 s⁻¹ and 0.00953 s⁻¹ | 176000 M⁻¹ s⁻¹ and 81200 M⁻¹ s⁻¹ | 49.5 nM and 77.5 nM | 0.00915 s⁻¹ and 0.00899 s⁻¹ | 185000 M⁻¹ s⁻¹ and 116000 M⁻¹ s⁻¹ | – |
| Fab fragment of antibody 4.8.3 (Fab, V domains shown) VH: EVQLQQSGPELVKPGASVKMSCKASGYTFISCVMHWVKQKPGQGLEWIGYINPYNDGTKYNEKFKGKATLTSDKSSSTAYMELSSLTSEDSAVYYCAREGDYYGYFDYWGQGTTLTVSS VL: EIQMTQTTSSLSASLGDRVTISCWASQDINNYLNWYQQKPDGTVKLLIYYTSRLHSGVPSRFSGSGSGTDYSLTISNLKQEDIATYFCQQGNTLPPTFGGGTKLEIKR | – | – | – | – | – | 970 nM and 450 nM | 0.0216 s⁻¹ and 0.0273 s⁻¹ | 22300 M⁻¹ s⁻¹ and 60000 M⁻¹ s⁻¹ | 210 nM and 251 nM | 0.019 s⁻¹ and 0.0275 s⁻¹ | 90000 M⁻¹ s⁻¹ and 109000 M⁻¹ s⁻¹ | – |
| Fab fragment of antibody 4.9.1 (Fab, V domains shown) VH: EVQLQQSGPELVKPGASVKMSCKASGYTFTSYVMHWVKQKPGQGLEWIGYINPYNDGTKYNENFKGKATLTSDKSSSTAYMEFSSLTSEDSAVYYCAREGDYYGYFDYWGQGTTLTVSS VL: DIQMTQTTSSLSASLGDRVTISCRASQDIRNYLNWYQQKPDGTVKLLIYYTSRLHSGVPSRFSGSGSGTDYSLTISNLEQEDIATYFCQQGNTLPPTFGGGTKLEIKR | – | – | – | – | – | 48.1 nM and 45.2 nM | 0.00622 s⁻¹ and 0.00777 s⁻¹ | 129000 M⁻¹ s⁻¹ and 172000 M⁻¹ s⁻¹ | 45.4 nM and 55 nM | 0.00593 s⁻¹ and 0.00734 s⁻¹ | 131000 M⁻¹ s⁻¹ and 133000 M⁻¹ s⁻¹ | – |
